According to patent US20240255522A1 (published 2024):
Where no end group is shown, it is not given here.

Legend:
[1] = target: HLA-DRB1*01:01 MHCII molecule (human); assay: saturation binding ELISA; pH 5
[2] = target: HLA-DRB1*04:01 MHCII molecule (human); assay: saturation binding ELISA; pH 5
[3] = target: HLA-DRB1*08:01 MHCII molecule (human); assay: saturation binding ELISA; pH 5
[4] = target: HLA-DRB1*11:01 MHCII molecule (human); assay: saturation binding ELISA; pH 5
[5] = target: HLA-DRB1*15:01 MHCII molecule (human); assay: saturation binding ELISA; pH 5
[6] = target: HLA-DRB1*09:01 MHCII molecule (human); assay: saturation binding ELISA; pH 5
[7] = target: HLA-DRB1*01:01 MHCII molecule (human); assay: saturation binding ELISA
[8] = target: HLA-DRB1*04:01 MHCII molecule (human); assay: saturation binding ELISA
[9] = target: HLA-DRB1*08:01 MHCII molecule (human); assay: saturation binding ELISA
[10] = target: HLA-DRB1*11:01 MHCII molecule (human); assay: saturation binding ELISA
[11] = target: HLA-DRB1*15:01 MHCII molecule (human); assay: saturation binding ELISA
[12] = target: HLA-DRB1*09:01 MHCII molecule (human); assay: saturation binding ELISA
[13] = target: HLA-DRB1*01:01 MHCII molecule (human); assay: saturation binding ELISA; pH 5; second sample

PVSKMRMATPLLMQA (also: biotinylated, position not given here) [biotinylated high affinity huCLIP]
Kd [1]: 7.1 nM | Kd [2]: 200 nM | Kd [3]: 16.8 nM | Kd [4]: 30.9 nM | Kd [5]: 87.9 nM | Kd [6]: 380 nM | Kd [7]: 6.09 nM | Kd [8]: 183 nM | Kd [9]: 14.4 nM | Kd [10]: 24.5 nM | Kd [11]: 109 nM | Kd [12]: 510 nM | Kd [13]: 8.7 nM
